One may read the Kd as a measure of binding affinity in units of concentration. Low values mean higher affinity, high ones lower affinity.

Results on 1 substance are retold here after patent US20220267442A1.

For the assay, the target named is TGFβ1 (human) (UniProt P01137). Nature of the assay: SPR. A general note: In SPR one partner is held on a chip, and binding of the other changes the refractive index at the surface.
Chain of TGFβ1 (human) (P01137 279-390): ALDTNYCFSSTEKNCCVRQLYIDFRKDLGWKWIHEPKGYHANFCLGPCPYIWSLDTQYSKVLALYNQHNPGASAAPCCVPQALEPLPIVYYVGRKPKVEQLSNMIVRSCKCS

Regarding αTGF-β (1D11), the Kd amounted to 0.0266 µM.
